Read-outs that look alike come from different tables or passages of the source.
How the values were obtained:
[1] = target: T1, rCsrABb (carbon storage regulator A) (Borrelia burgdorferi, UniProt O51202 1-81); assay: EMSA
T1 sequence: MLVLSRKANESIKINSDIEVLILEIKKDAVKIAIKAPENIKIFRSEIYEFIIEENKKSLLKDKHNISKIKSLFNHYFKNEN

[2] = target: T1, rCsrABb (carbon storage regulator A); assay: EMSA; remark: listed apart in the source

| Binder | binding result [1] | binding result [2] |
| --- | --- | --- |
| GCAAAAGGAUUUGCCAAAGUCAGAAUUUAAAUUUUAUCAUGGAGGAAUGA (ssRNA) [flaB leader probe, wild type (P10, flaBp)] | binds |  |
| GCAAAAAAAUUUGCCAAAGUCAGAAUUUAAAUUUUAUCAUAAAGGAAUGA (ssRNA) [flaB leader probe, BS1 BS2 mutated (P13)] |  | no binding |
